B1: HvGBSSIa (Hordeum vulgare; D287V/I559V/M558V) (protein)
chain: SATGSGMNLVFVGAEMAPWSKTGGLGDVLGGLPPAMAANGHRVMVVSPRYDQYKDAWDTSVISEIKVADEYERVRFFHCYKRGVDRVFIDHPWFLEKVRGKTKEKIYGPDAGTDYEDNQQRFSLLCQAALEAPRILNLNNNPYFSGPYGEDVVFVCNDWHTGLLACYLKSNYQSNGIYRTAKVAFCIHNISYQGRFSFDDFAQLNLPDRFKSSFDFIVGYDKPVEGRKINWMKAGILQADKVLTVSPYYAEELISGEARGCELDNIMRLTGITGIVNGMDVSEWDPTKDKFLAVNYDITTALEAKALNKEALQAEVGLPVDRKVPLVAFIGRLEEQKGPDVMIAAIPEILKEEDVQIILLGTGKKKFEKLLKSMEEKFPGKVRAVVRFNAPLAHQMMAGADLLAVTSRFEPCGLIQLQGMRYGTPCVCASTGGLVDTIVEGKTGFHMGRLSVDCNVVEPADVKKVATTLKRAVKVVGTPAYQEMVKNCVVQDLSWKGPAKNWEDVLLELGVEGSEPGIVGEEIAPLAMENVAAP
notes: initial 69 residues (plastid transit peptide) removed; codon-optimized, pET28a 6xHis tag; E. coli Tuner(DE3); HisTrap and Superdex75; mature size 59 kDa; CDC Alamo allele entry AF486519
B2: HvGBSSIa (Hordeum vulgare; D287V) (protein)
chain: B1 chain with V489M, V490I
notes: as for B1
B3: HvGBSSIa (Hordeum vulgare) (protein)
chain: B1 chain with V218D, V489M, V490I
notes: as for B1
B4: HvGBSSIa (Hordeum vulgare; M558V) (protein)
chain: B1 chain with V218D, V490I
notes: as for B1
B5: HvGBSSIa (Hordeum vulgare; I559V) (protein)
chain: B1 chain with V218D, V489M
notes: as for B1
B6: HvGBSSIa (Hordeum vulgare; I559V/M558V) (protein)
chain: B1 chain with V218D
notes: as for B1

Where a chain is given by its changes, count along the chain named. In names and notes the source's numbering stands.

The values that follow come from paper PMC5441850, “Waxy and non-waxy barley cultivars exhibit differences in the targeting and catalytic activity of GBSS1a” (Journal of Experimental Botany, 2017).

In general, Km refers to the substrate concentration at which the rate is half of its maximum. The kcat is the maximal rate divided by the concentration of active sites.

Substrate in the data set: Nc1ncnc2c1ncn2[C@@H]1O[C@H](COP(=O)(O)OP(=O)(O)O[C@H]2O[C@H](CO)[C@@H](O)[C@H](O)[C@H]2O)[C@@H](O)[C@H]1O
Briefly: purified protein. Format: biochemical, Hordeum vulgare. To be noted: rabbit liver glycogen 1 mg/ml as acceptor, 50 mM Bicine pH 8.5, 25 mM potassium acetate, 2 mM MgCl2, 10 mM DTT, 37 °C.
As to B1, the Michaelis-Menten constant (Km) is 51 ± 10 µM and the kcat was 0.56 ± 0.03 min⁻¹.

In the case of B2, the Michaelis-Menten constant (Km) stood at 127 ± 9 µM and the catalytic constant (kcat) was found to be 2.76 ± 0.06 min⁻¹.

B3: the Km is given as 160 ± 15 µM and the kcat was determined as 5.8 ± 0.2 min⁻¹.

Take B4: the Km is listed as 71 ± 7 µM and the kcat turned out to be 21.2 ± 0.6 min⁻¹.

With B5, the Km was 114 ± 15 µM and the kcat came out at 6.7 ± 0.3 min⁻¹.

B6: the Km is recorded as 56 ± 8 µM and the kcat was determined as 0.94 ± 0.04 min⁻¹.
